Source: patent US20030186329A1, “Use of substrate subtraction libraries to distinguish enzyme specificities” (The Scripps Research Institute, priority 1998, published 2003)

Key:
[1] = target: tissue plasminogen activator (t-PA) (human) (UniProt P00750); test: ratio of the rate constants for inhibition of t-PA and u-PA
[2] = target: urokinase-type plasminogen activator (u-PA) (human) (UniProt P00749); test: inhibition kinetics, residual enzymatic activity
[3] = target: tissue plasminogen activator (t-PA) (human) (UniProt P00750); test: inhibition kinetics, residual enzymatic activity
[4] = target: urokinase-type plasminogen activator (u-PA) (human) (UniProt P00749); test: ratio of the rate constants for inhibition of u-PA, wild type against variant
[5] = target: urokinase-type plasminogen activator (u-PA) (human) (UniProt P00749); test: ratio of the rate constants for inhibition of u-PA and t-PA
[6] = target: urokinase-type plasminogen activator (u-PA) (human) (UniProt P00749); test: inhibition kinetics, residual enzymatic activity, indirect chromogenic assay

Chain of tissue plasminogen activator (t-PA) (human) (P00750 36-562 limits assumed): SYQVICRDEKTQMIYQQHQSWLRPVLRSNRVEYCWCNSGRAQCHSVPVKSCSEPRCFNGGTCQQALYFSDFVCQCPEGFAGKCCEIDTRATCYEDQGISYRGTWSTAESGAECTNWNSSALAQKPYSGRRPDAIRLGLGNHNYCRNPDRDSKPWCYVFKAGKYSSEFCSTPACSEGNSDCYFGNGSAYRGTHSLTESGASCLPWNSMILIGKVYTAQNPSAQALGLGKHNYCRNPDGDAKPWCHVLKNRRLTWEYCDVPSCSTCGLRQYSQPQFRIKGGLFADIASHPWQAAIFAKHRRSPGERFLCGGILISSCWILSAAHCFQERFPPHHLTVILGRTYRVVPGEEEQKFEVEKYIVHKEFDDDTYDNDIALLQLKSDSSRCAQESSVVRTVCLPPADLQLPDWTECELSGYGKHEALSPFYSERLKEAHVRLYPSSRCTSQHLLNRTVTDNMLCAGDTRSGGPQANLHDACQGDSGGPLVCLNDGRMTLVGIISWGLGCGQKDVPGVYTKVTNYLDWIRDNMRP

PAI-1/P4Q, P3R (from UniProt P05121 24-402)
t-PA/u-PA Selectivity [1]: 48
second order rate constant for inhibition [2]: 29000 M⁻¹ s⁻¹
second order rate constant for inhibition [3]: 1.4e+06 M⁻¹ s⁻¹

PAI-1/P3R (from UniProt P05121 24-402)
fold reduction of activity against wild type PAI-1 [4]: 190 fold
t-PA/u-PA Selectivity [1]: 14
second order rate constant for inhibition [2]: 100000 M⁻¹ s⁻¹
second order rate constant for inhibition [3]: 1.4e+06 M⁻¹ s⁻¹

wild type plasminogen activator inhibitor type 1 (PAI-1) (from UniProt P05121 24-402) (other; other documents disagree on this pair)
fold specificity toward u-PA over t-PA [5]: 11.9 fold
second order rate constant for inhibition [6]: 1.9e+07 M⁻¹ s⁻¹
